The Kd is a measure of binding affinity in units of concentration. A higher Kd goes with lower affinity.

The target in this test is T1, Ubc12^N8 (Homo sapiens, UniProt P61081+Q15843, C111S).
T1 construct: DEN1 which processes NEDD8 to its mature, 76-amino acid form; made in house; conjugate made enzymatically in vitro
Put plainly: Biolayer interferometry, immobilized Ubc12^N8. The note with it: for Kd: binding to immobilized Ubc12^N8. The class given is binding. The procedure: V5-tagged GlyRS and Flag-tagged Ubc12-C111S genes were co-transfected to HEK293 cell for the assay. FIG. 3B: Strong binding of Ubc12^N8 to GlyRS as determined by biolayer interferometry. A.U. indicates Arbitrary Unit. Binding analysis to immobilized GST-GlyRS was carried out with the same concentration (62.5 nM) of NEDD8, Ubc12, or Ubc12^N8 at 30°. FIG. 3C: Biolayer interferometry analysis confirms that GlyRS binding to Ubc12^N8. Binding analysis to immobilized Ubc12^N8 was carried out with a range of concentrations of full-length (8.07 nM-129 nM) GlyRS. FIG. 3D: Structural model of the GlyRS-Ubc12^N8 interaction generated using Patchdock (a server for molecular docking). FIGS. 3E-G: Biolayer interferometry analysis confirms that F84-L93 and I232-M238 regions, but not Insertion 1, are important for GlyRS binding to Ubc12^N8. Binding analysis to immobilized Ubc12^N8 was carried out with a range of concentrations (1.25-20 μg/mL) of ΔF84-L93 (8.16-130 nM), ΔI232-M238 (8.13-130 nM), and Alnsertion 1 (62.5-125 nM) GlyRS. FIG. 3H: Over-expression of ΔI232-M238 GlyRS in HEK293 cells cannot promote NEDD8 conjugation of Ubc12. HEK293 cells were transfected with pcDNA6V5 vectors containing the indicated gene fragment with a V5-tag.
The conjugated Ubc12 was prepared by mixing APPBP1/UBA3 (2 μM), Ubc12 (C111S; the mutant would form a stable ester linkage to NEDD8) (70 μM), and His-SUMO-tagged NEDD8 (100 μM). The mixture was incubated at 25° C. for 16 h in 50 mM NaOAc pH 5.5, 50 mM NaCl, 1 mM MgCl2, and 2 mM ATP. Ubc12^N8 was then purified by gel filtration chromatography using a Superdex 200 column. The fractions containing only Ubc12^N8 were concentrated and used for the study. The purity of proteins was examined by SDS-PAGE to be above 95%.
The dissociation constants (Kd) were obtained with biolayer interferometry by using an Octet QK system (ForteBio, Menlo Park, Calif., USA). Samples or buffer were dispensed into 96-well plates (Millipore, Billerica, Mass.) at 200 μL per well. Operating temperature was maintained at 30° C. Proteins were diluted into kinetic buffer (PBS with 0.1% BSA and 0.002% Tween-20) and immobilized on either anti-GST or Ni-NTA sensor tips. The other proteins were diluted using the same buffer into a range of different concentrations. Assays with Ubc12^N8 were carried out using the acid kinetic buffer (50 mM NaOAc pH 5.5, 50 mM NaCl, 0.1% BSA, and 0.002% Tween-20). The raw data were processed by subtraction to reference cells and then aligned with baselines. The dissociation constants Kd were obtained by fitting the processed data using the 1:1 model in the Octet analysis software with R^2>0.99.
Indeed, GlyRS can bind to Ubc12^N8 in HEK293 cells as detected by co-immunoprecipitation (FIG. 3a). […] To quantify the difference, Ubc12^N8 was enzymatically made and purified, and its binding affinity to GlyRS was measured using biolayer interferometry. […] Therefore, it is possible that GlyRS enhances neddylation by protecting reaction intermediate Ubc12^N8.
Using the crystal structure of human GlyRS16 and of Ubc12N8 (adapted from its complex with substrate cullin and E3), a model was generated for the GlyRS-Ubc12^N8 interaction using the Patchdock algorithm (http://bioinfo3d.cs.tau.ac.il/PatchDock/). […]
A general note: BLI is a label-free optical method that tracks binding on a fibre tip over time.

T1 sequence (P61081 whole entry C111S): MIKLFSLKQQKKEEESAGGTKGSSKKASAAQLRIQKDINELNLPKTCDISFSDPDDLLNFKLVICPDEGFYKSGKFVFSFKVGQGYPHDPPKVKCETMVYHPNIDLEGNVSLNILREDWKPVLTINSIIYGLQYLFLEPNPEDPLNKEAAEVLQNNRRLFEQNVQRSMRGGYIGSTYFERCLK
T1 sequence (Q15843 1-76 limits assumed): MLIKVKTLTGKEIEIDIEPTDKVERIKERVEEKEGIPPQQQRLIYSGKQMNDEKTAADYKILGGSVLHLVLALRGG

B1: A84-93: GlyRS deletion mutant, F84-L93 replaced by GGG (protein)
chain: MDGAGAEEVLAPLRLAVRQQGDLVRKLKEDKAPQVDVDKAVAELKARKRVLEAKELALQPKDDIVDRAKMEDTLKRRFFYDQAGGGYDFGPVGCALKNNIIQTWRQHFIQEEQILEIDCTMLTPEPVLKTSGHVDKFADFMVKDVKNGECFRADHLLKAHLQKLMSDKKCSVEKKSEMESVLAQLDNYGQQELADLFVNYNVKSPITGNDLSPPVSFNLMFKTFIGPGGNMPGYLRPETAQGIFLNFKRLLEFNQGKLPFAAAQIGNSFRNEISPRSGLIRVREFTMAEIEHFVDPSEKDHPKFQNVADLHLYLYSAKAQVSGQSARKMRLGDAVEQGVINNTVLGYFIGRIYLYLTKVGISPDKLRFRQHMENEMAHYACDCWDAESKTSYGWIEIVGCADRSCYDLSCHARATKVPLVAEKPLKEPKTVNVVQFEPSKGAIGKAYKKDAKLVMEYLAICDECYITEMEMLLNEKGEFTIETEGKTFQLTKDMINVKRFQKTLYVEEVVPNVIEPSFGLGRIMYTVFEHTFHVREGDEQRTFFSFPAVVAPFKCSVLPLSQNQEFMPFVKELSEALTRHGVSHKVDDSSGSIGRRYARTDEIGVAFGVTIDFDTVNKTPHTATLRDRDSMRQIRAEISELPSIVQDLANGNITWADVEARYPLFEGQETGKKETIEE
Molecule B1 registered an equilibrium dissociation constant (Kd) of 27 ± 0.4 nM. Further, under “versus full-length GlyRS”, the “fold decrease of binding of GlyRS to Ubc12^N8” value is 9 fold.

B2: A232-238: GlyRS deletion mutant, I232-M238 replaced by GG (protein)
chain: MDGAGAEEVLAPLRLAVRQQGDLVRKLKEDKAPQVDVDKAVAELKARKRVLEAKELALQPKDDIVDRAKMEDTLKRRFFYDQAFAIYGGVSGLYDFGPVGCALKNNIIQTWRQHFIQEEQILEIDCTMLTPEPVLKTSGHVDKFADFMVKDVKNGECFRADHLLKAHLQKLMSDKKCSVEKKSEMESVLAQLDNYGQQELADLFVNYNVKSPITGNDLSPPVSFNLMFKTFGGPGYLRPETAQGIFLNFKRLLEFNQGKLPFAAAQIGNSFRNEISPRSGLIRVREFTMAEIEHFVDPSEKDHPKFQNVADLHLYLYSAKAQVSGQSARKMRLGDAVEQGVINNTVLGYFIGRIYLYLTKVGISPDKLRFRQHMENEMAHYACDCWDAESKTSYGWIEIVGCADRSCYDLSCHARATKVPLVAEKPLKEPKTVNVVQFEPSKGAIGKAYKKDAKLVMEYLAICDECYITEMEMLLNEKGEFTIETEGKTFQLTKDMINVKRFQKTLYVEEVVPNVIEPSFGLGRIMYTVFEHTFHVREGDEQRTFFSFPAVVAPFKCSVLPLSQNQEFMPFVKELSEALTRHGVSHKVDDSSGSIGRRYARTDEIGVAFGVTIDFDTVNKTPHTATLRDRDSMRQIRAEISELPSIVQDLANGNITWADVEARYPLFEGQETGKKETIEE
For B2, under “immobilized Ubc12^N8, FIG. 3f”, the “binding of GlyRS to Ubc12^N8” value is “abolished the binding completely”.

B3: GlyRS: human Glycyl-tRNA synthetase, recombinant full-length protein (SEQ ID NO: 2) (protein, listed as Homo sapiens)
chain: MDGAGAEEVLAPLRLAVRQQGDLVRKLKEDKAPQVDVDKAVAELKARKRVLEAKELALQPKDDIVDRAKMEDTLKRRFFYDQAFAIYGGVSGLYDFGPVGCALKNNIIQTWRQHFIQEEQILEIDCTMLTPEPVLKTSGHVDKFADFMVKDVKNGECFRADHLLKAHLQKLMSDKKCSVEKKSEMESVLAQLDNYGQQELADLFVNYNVKSPITGNDLSPPVSFNLMFKTFIGPGGNMPGYLRPETAQGIFLNFKRLLEFNQGKLPFAAAQIGNSFRNEISPRSGLIRVREFTMAEIEHFVDPSEKDHPKFQNVADLHLYLYSAKAQVSGQSARKMRLGDAVEQGVINNTVLGYFIGRIYLYLTKVGISPDKLRFRQHMENEMAHYACDCWDAESKTSYGWIEIVGCADRSCYDLSCHARATKVPLVAEKPLKEPKTVNVVQFEPSKGAIGKAYKKDAKLVMEYLAICDECYITEMEMLLNEKGEFTIETEGKTFQLTKDMINVKRFQKTLYVEEVVPNVIEPSFGLGRIMYTVFEHTFHVREGDEQRTFFSFPAVVAPFKCSVLPLSQNQEFMPFVKELSEALTRHGVSHKVDDSSGSIGRRYARTDEIGVAFGVTIDFDTVNKTPHTATLRDRDSMRQIRAEISELPSIVQDLANGNITWADVEARYPLFEGQETGKKETIEE
Regarding B3, binding was put at a Kd of 3.21 ± 0.17 nM.

B4: Insertion 1: GlyRS with Insertion 1 deleted (F147-F224 replaced by GSGSGG) (protein)
chain: MDGAGAEEVLAPLRLAVRQQGDLVRKLKEDKAPQVDVDKAVAELKARKRVLEAKELALQPKDDIVDRAKMEDTLKRRFFYDQAFAIYGGVSGLYDFGPVGCALKNNIIQTWRQHFIQEEQILEIDCTMLTPEPVLKTSGHVDKFADGSGSGGNLMFKTFIGPGGNMPGYLRPETAQGIFLNFKRLLEFNQGKLPFAAAQIGNSFRNEISPRSGLIRVREFTMAEIEHFVDPSEKDHPKFQNVADLHLYLYSAKAQVSGQSARKMRLGDAVEQGVINNTVLGYFIGRIYLYLTKVGISPDKLRFRQHMENEMAHYACDCWDAESKTSYGWIEIVGCADRSCYDLSCHARATKVPLVAEKPLKEPKTVNVVQFEPSKGAIGKAYKKDAKLVMEYLAICDECYITEMEMLLNEKGEFTIETEGKTFQLTKDMINVKRFQKTLYVEEVVPNVIEPSFGLGRIMYTVFEHTFHVREGDEQRTFFSFPAVVAPFKCSVLPLSQNQEFMPFVKELSEALTRHGVSHKVDDSSGSIGRRYARTDEIGVAFGVTIDFDTVNKTPHTATLRDRDSMRQIRAEISELPSIVQDLANGNITWADVEARYPLFEGQETGKKETIEE
For B4, the affinity, expressed as Kd, was 4.32 ± 0.12 nM.

The record behind these values is patent US20190381086A1, “INHIBITION OF NEDDYLATION USING GLYCYL-tRNA SYNTHETASE INHIBITORS” (The Scripps Research Institute, priority 2015, published 2019).
